Experimental data from doi:10.1101/2022.03.02.482641v1.

B1: hSARM1 (hSARM1 w.t., near-intact, 26ERL...GPT724) (Homo sapiens) (protein)
chain: ERLAVPGPDGGGGTGPWWAAGGRGPREVSPGAGTEVQDALERALPELQQALSALKQAGGARAVGAGLAEVFQLVEEAWLLPAVGREVAQGLCDAIRLDGGLDLLLRLLQAPELETRVQAARLLEQILVAENRDRVARIGLGVILNLAKEREPVELARSVAGILEHMFKHSEETCQRLVAAGGLDAVLYWCRRTDPALLRHCALALGNCALHGGQAVQRRMVEKRAAEWLFPLAFSKEDELLRLHACLAVAVLATNKEVEREVERSGTLALVEPLVASLDPGRFARCLVDASDTSQGRGPDDLQRLVPLLDSNRLEAQCIGAFYLCAEAAIKSLQGKTKVFSDIGAIQSLKRLVSYSTNGTKSALAKRALRLLGEEVPRPILPSVPSWKEAEVQTWLQQIGFSKYCESFREQQVDGDLLLRLTEEELQTDLGMKSGITRKRFFRELTELKTFANYSTCDRSNLADWLGSLDPRFRQYTYGLVSCGLDRSLLHRVSEQQLLEDCGIHLGVHRARILTAAREMLHSPLPCTGGKPSGDTPDVFISYRRNSGSQLASLLKVHLQLHGFSVFIDVEKLEAGKFEDKLIQSVMGARNFVLVLSPGALDKCMQDHDCKDWVHKEIVTALSCGKNIVPIIDGFEWPEPQVLPEDMQAVLTFNGIKWSHEYQEATIEKIIRFLQGRSSRDSSAGSDTSLEGAAPMGPT
B2: zfSARM1 (zebrafish SARM1, zfSARM1 w.t.) (Danio rerio) (protein)
chain: DRLTVPEYVSSRLHNRRTAPDPRAVSPGISTDVQAVLDGSLPALRSAIRTLRSSKDTGDLEETRRAIAETFQLVEEAWVLPTVGRRVAEEICNRIRLDGGLELLLQLMQTPAVEITYESAKLLEQILVSENRDYVARMGLGVILNLTREQEDAQLARSVSGILEHMFKHTEETSAQLITNGALDTILYWCRGTDPTVLRHCAVALSNCAMYGGHRCQRLMIEKQAAEWLFPLAFSKEDELIRFHACLAVAVLAANREMEKEVVKSGTLELVEPFIASLDPDEFARNMLDSADSMQGRTAADLQHLLPLLDGTRLEGKCIAAFYLCVETSIKSRQRNTKIFQEIGAVQSLKRIVMYSSNATVCSLAKRALKMMSEEVPRRILSSVPNWKSGEVQTWLQQIGFSAFSERFQELQVDGDLLLNITEQDLIQDLGMTSGLTRKRFLRDLRVLKTYANYSTCDPNNLADWLADADPRFRQYTYGLVQSGVDRNNIVHITDQQLLTDCHVENGIHRAKILSAARRPSKPCLTDSQPKGPDVFISYRRTTGSQLASLLKVHLQLRGFSVFIDVEKLEAGRFEEKLITSVQRARNFILVLSANALDKCMGDVAMKDWVHKEIVTALNGKKNIVPVTDNFVWPDPTSLPEDMSTILKFNGIKWSHEYQEATIEKILRFLEGCPSQEKPDGAKTDKKEPQKK

Substrate: NC(=O)c1ccc[n+]([C@@H]2O[C@H](COP(=O)([O-])OP(=O)(O)OC[C@H]3O[C@@H](n4cnc5c(N)ncnc54)[C@H](O)[C@@H]3O)[C@@H](O)[C@H]2O)c1
Assay: purified protein

Protein	Km	kcat
B1	33 µM	3.65 s⁻¹
B2	28 µM	6.85 s⁻¹
